# According to patent publication US9199234:
# How the values were obtained:
# [1] = target: Chorionic Gonadotropin (CG) (UniProt P01215); assay: FRET quenching titration in solution: BHQ-10-labelled antibody, Alexa-Fluor 488-labelled antigen
# [2] = target: Follicle Stimulating Hormone (FSH) (UniProt P01215); assay: as above
# [3] = target: Luteinizing Hormone (LH) (UniProt P01215); assay: as above
# [4] = target: Thyroid Stimulating Hormone (TSH) (UniProt P01215); assay: as above
# [5] = target: Thyroid Stimulating Hormone (TSH) (UniProt P01215); assay: i-STAT sandwich immunoassay, recombinant TSH; row antibody on capture beads; detection ALP conjugate: M4
# [6] = target: Thyroid Stimulating Hormone (TSH) (UniProt P01215); assay: i-STAT sandwich immunoassay, recombinant TSH; row antibody on capture beads; detection ALP conjugate: 5409
# [7] = target: Thyroid Stimulating Hormone (TSH) (UniProt P01215); assay: i-STAT sandwich immunoassay, recombinant TSH; row antibody on capture beads; detection ALP conjugate: T25C
# [8] = target: Thyroid Stimulating Hormone (TSH) (UniProt P01215); assay: i-STAT sandwich immunoassay, recombinant TSH; row antibody on capture beads; detection ALP conjugate: TSH Ab 544
# [9] = target: Chorionic Gonadotropin (CG) (UniProt P01215); assay: i-STAT sandwich, 0.4 mIU/L TSH spiked with CG, signal increase over TSH alone; capture: row antibody; detection conjugate: 5409
# [10] = target: Luteinizing Hormone (LH) (UniProt P01215); assay: i-STAT sandwich, 0.4 mIU/L TSH spiked with LH, signal increase over TSH alone; capture: row antibody; detection conjugate: 5409
# [11] = target: Thyroid Stimulating Hormone (TSH) (UniProt P01215); assay: FRET competition on Alexa-488-labelled antigen (taken as TSH); excess unlabelled antibody first; competitor: BHQ-labelled M4
# [12] = target: Follicle Stimulating Hormone (FSH) (UniProt P01215); assay: i-STAT sandwich, 0.4 mIU/L TSH spiked with FSH, signal increase over TSH alone; capture: row antibody; detection conjugate: 5409
# [13] = target: Thyroid Stimulating Hormone (TSH) (UniProt P01215); assay: FRET competition on Alexa-488-labelled antigen (taken as TSH); excess unlabelled antibody first; competitor: BHQ-labelled 414B
# [14] = target: Thyroid Stimulating Hormone (TSH) (UniProt P01215); assay: FRET competition on Alexa-488-labelled antigen (taken as TSH); excess unlabelled antibody first; competitor: BHQ-labelled 5409
# [15] = target: Thyroid Stimulating Hormone (TSH) (UniProt P01215); assay: FRET competition on Alexa-488-labelled antigen (taken as TSH); excess unlabelled antibody first; competitor: BHQ-labelled T25C
# [16] = target: Thyroid Stimulating Hormone (TSH) (UniProt P01215); assay: FRET competition on Alexa-488-labelled antigen (taken as TSH); excess unlabelled antibody first; competitor: BHQ-labelled ME130
# [17] = target: Thyroid Stimulating Hormone (TSH) (UniProt P01215); assay: FRET competition on Alexa-488-labelled antigen (taken as TSH); excess unlabelled antibody first; competitor: BHQ-labelled TSH Ab 544
# [18] = target: Luteinizing Hormone (LH) (UniProt P01215); assay: i-STAT LH-detecting cartridge (LH 5304 capture beads, 414B conjugate); polystyrene LH 5304 scavenger beads in the sample; signal without beads = 100%
# [19] = target: Thyroid Stimulating Hormone (TSH) (UniProt P01215); assay: i-STAT sandwich immunoassay, recombinant TSH; row antibody on capture beads; detection ALP conjugate: ME130
# [20] = target: Chorionic Gonadotropin (CG) (UniProt P01215); assay: i-STAT sandwich, 0.4 mIU/L TSH spiked with CG, signal increase over TSH alone; capture: row antibody; detection conjugate: TSH Ab 544
# [21] = target: Luteinizing Hormone (LH) (UniProt P01215); assay: i-STAT sandwich, 0.4 mIU/L TSH spiked with LH, signal increase over TSH alone; capture: row antibody; detection conjugate: TSH Ab 544
# [22] = target: Follicle Stimulating Hormone (FSH) (UniProt P01215); assay: i-STAT sandwich, 0.4 mIU/L TSH spiked with FSH, signal increase over TSH alone; capture: row antibody; detection conjugate: TSH Ab 544
# [23] = target: Thyroid Stimulating Hormone (TSH) (UniProt P01215); assay: i-STAT sandwich immunoassay, recombinant TSH; row antibody on capture beads; detection ALP conjugate: 414B
# [24] = target: Chorionic Gonadotropin (CG) (UniProt P01215); assay: i-STAT sandwich, 0.4 mIU/L TSH spiked with CG, signal increase over TSH alone; capture: row antibody; detection conjugate: 414B
# [25] = target: Luteinizing Hormone (LH) (UniProt P01215); assay: i-STAT sandwich, 0.4 mIU/L TSH spiked with LH, signal increase over TSH alone; capture: row antibody; detection conjugate: 414B
# [26] = target: Follicle Stimulating Hormone (FSH) (UniProt P01215); assay: i-STAT sandwich, 0.4 mIU/L TSH spiked with FSH, signal increase over TSH alone; capture: row antibody; detection conjugate: 414B
# [27] = target: Chorionic Gonadotropin (CG) (UniProt P01215); assay: i-STAT sandwich, 0.4 mIU/L TSH spiked with CG, signal increase over TSH alone; capture: row antibody; detection conjugate: T25C
# [28] = target: Luteinizing Hormone (LH) (UniProt P01215); assay: i-STAT sandwich, 0.4 mIU/L TSH spiked with LH, signal increase over TSH alone; capture: row antibody; detection conjugate: T25C
# [29] = target: Chorionic Gonadotropin (CG) (UniProt P01215); assay: i-STAT sandwich, 0.4 mIU/L TSH spiked with CG, signal increase over TSH alone; capture: row antibody; detection conjugate: ME130
# [30] = target: Follicle Stimulating Hormone (FSH) (UniProt P01215); assay: i-STAT sandwich, 0.4 mIU/L TSH spiked with FSH, signal increase over TSH alone; capture: row antibody; detection conjugate: T25C
# [31] = target: Luteinizing Hormone (LH) (UniProt P01215); assay: i-STAT sandwich, 0.4 mIU/L TSH spiked with LH, signal increase over TSH alone; capture: row antibody; detection conjugate: ME130
# [32] = target: Follicle Stimulating Hormone (FSH) (UniProt P01215); assay: i-STAT sandwich, 0.4 mIU/L TSH spiked with FSH, signal increase over TSH alone; capture: row antibody; detection conjugate: ME130
Substance,Kd [1] [nM],Kd [2] [nM],Kd [3] [nM],Kd [4] [nM],electrochemical current of sandwich immunoassay [5] [nA],electrochemical current of sandwich immunoassay [6] [nA],electrochemical current of sandwich immunoassay [7] [nA],electrochemical current of sandwich immunoassay [8] [nA],CG CR (%) [9] [%],LH CR (%) [10] [%],relative fluorescence [11],FSH CR (%) [12] [%],relative fluorescence [13],relative fluorescence [14],relative fluorescence [15],relative fluorescence [16],relative fluorescence [17],electrochemical current of sandwich immunoassay [19] [nA],other results
AbCAM ME-130 mouse monoclonal antibody,45,70,54,0.04,50.5,54.7,-0.1,10.8,11.8,11.1,0.77,3.9,0.99,0.82,0.88,1,0.82,–,–
"Biospacific LH 5304 monoclonal antibody (mus beta-LH, Catalog #5304 SP-5)",–,–,–,–,–,–,–,–,–,–,–,–,–,–,–,–,–,–,signal remaining after scavenger beads (%) [18]: 4%
Fitzgerald 10C-CR2151M4 mouse monoclonal antibody,554,210,300,0.18,–,20.7,22.5,0,–,–,1,–,0.9,0.94,0.74,0.76,0.98,39.9,–
"Seradyn anti-alpha-LH monoclonal antibody (Seradyn, Cat#MIT0414B)",0.05,0.1,0.05,0.04,41.3,40.3,–,10.2,84.6,348,0.75,260,1,0.81,0.76,0.86,0.83,–,CG CR (%) [20]: 39.2%; LH CR (%) [21]: 467%; FSH CR (%) [22]: 219%
TSH Antibody 544 (Abbott Diagnostics Division),210,1000,1000,1.31,0.11,7.98,22.4,–,–,–,0.92,–,0.89,0.96,0.71,0.72,1,34.9,electrochemical current of sandwich immunoassay [23]: 25 nA; CG CR (%) [24]: 117%; LH CR (%) [25]: 11.8%; FSH CR (%) [26]: 7.15%
TSH capture mouse monoclonal antibody Biospacific Cat#5409 SPTNE-5,500,1000,1000,0.1,15.2,–,34.6,1.41,–,–,0.9,–,0.88,1,0.78,0.78,0.93,53.6,CG CR (%) [27]: 0.96%; LH CR (%) [28]: 3.76%; CG CR (%) [29]: 0.78%; FSH CR (%) [30]: 0.65%; LH CR (%) [31]: 10.1%; FSH CR (%) [32]: 2.43%
signaling mouse monoclonal antibody Fitzgerald Cat#10-T25C,40,300,35,0.08,40.9,49.7,–,0.83,13.7,9.89,0.92,6.25,0.97,0.95,1,0.97,0.97,0.68,electrochemical current of sandwich immunoassay [23]: 0.82 nA
